Data taken from patent publication US12692310B2, “ASIC1 channel antagonist antibody” (ShanghaiTech University, priority 2019, dated 2026).

How the values were obtained:
hASIC1a = biological target: T1, hASIC1a (Homo sapiens, UniProt P78348); assay: Whole-cell patch clamp, acid-induced hASIC1a currents in stable CHO-K1 cells; assay type: cell-based
T1 construct: expressed in transfected cells
T1 sequence (P78348 1-528): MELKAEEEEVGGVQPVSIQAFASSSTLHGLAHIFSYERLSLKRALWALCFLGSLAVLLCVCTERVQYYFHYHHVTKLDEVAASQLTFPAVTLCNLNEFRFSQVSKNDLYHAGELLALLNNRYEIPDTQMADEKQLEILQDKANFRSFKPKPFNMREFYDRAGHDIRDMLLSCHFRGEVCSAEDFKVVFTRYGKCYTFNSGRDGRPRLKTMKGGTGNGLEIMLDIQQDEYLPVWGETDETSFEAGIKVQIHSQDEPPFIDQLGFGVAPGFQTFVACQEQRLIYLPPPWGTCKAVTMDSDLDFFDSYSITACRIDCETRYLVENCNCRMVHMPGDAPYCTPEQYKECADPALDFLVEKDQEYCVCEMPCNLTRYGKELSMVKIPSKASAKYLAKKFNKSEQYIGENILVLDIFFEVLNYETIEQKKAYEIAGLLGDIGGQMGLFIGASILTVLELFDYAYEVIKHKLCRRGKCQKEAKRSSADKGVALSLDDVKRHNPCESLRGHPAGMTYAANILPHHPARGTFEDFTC
Description: Electrophysiological Experiments. The inward cellular ASIC1a current was recorded from a single cell using standard whole-cell recording techniques by a patch-clamp amplifier (Axon 200B; Axon Instruments). Membrane currents were sampled and analyzed using a Digidata 1320A interface and a personal computer with Clampex and Clampfit software (Version 9.0.1; Axon Instruments). For a typical experiment, the extracellular fluid (ECF) used contained 150 mM NaCl, 5 mM KCl, 10 mM HEPES, 10 mM D-glucose, 2 mM CaCl2, and 1.0 mM MgCl2, with the osmotic pressure in the range of 320-335 mOsm, and pH 7.4 adjusted with 5 M NaOH. Patch electrodes (4-6 MΩ) contained 30 mM NaCl, 120 mM KCl, 0.5 mM CaCl2, 1 mM MgCl2, 10 mM HEPES, 2 mM MgATP, and 5 mM EGTA (pH 7.2 adjusted with 5 M KOH) at 300 mOsm. The ASIC1a activating ECF is identical to the normal ECF, except that MES was used to replace HEPES to maintain the ECF at pH 6.0. A coverslip with discretely distributed individual CHO-ASIC1a stable cells (6H7) on the surface was placed into a recording chamber under a constant perfusion (~2-3 mL/min) generated by an ALA 8 channel perfusion system (ALA Scientific Instruments Inc.) mounted on an inverted microscope. After achieving the break-in (whole-cell) configuration, the cell was voltage clamped at a holding potential of −70 mV. The normal ECF (pH 7.4) was first perfused onto the patched cell, and then, the activating ECF of pH 6.0 was rapidly applied to elicit a maximum inward ASIC1a current as control current. When testing the inhibition effect of the antibody, ECFs of pH 7.4 containing different concentrations of ASC06-IgG1 were perfused from low to high concentration into the recording chamber for 10-15 min. To measure the inhibition of the current, the activating ECFs of pH 6.0 containing the corresponding concentrations of the testing antibodies were applied to the same patched 6H7 cell to generate the inward currents that can be normalized to the control current of the same cell. […] Data acquired from four to five cells were used for statistical calculation of inhibition effects.
The function of ASC06-IgG1 was characterized using electrophysiology approach. The effect of ASC06-IgG1 antibody on the acid-induced, hASIC1a-mediated electrical current in cells was analyzed. PcTx1 was used as a positive control. […] The amplitudes of the hASIC1a-mediated inward currents of the stable cells were recorded and quantitated in the absence and presence of ASC06-IgG1, with venom peptide PcTx1 (100 nM) used as positive control. […] Unlike the sustained inhibition with the antibody after washing, the inhibition with PcTx1 could be readily washed out within 5 minutes (FIG. 5C).

[1] = system: MCAO-induced ischemic stroke model mice; assay: Middle cerebral artery occlusion (MCAO)-induced ischemic stroke model; assay type: in vivo, mouse; settings: 4 μL i.c.v. 3 h after ischemia; 100 nM PcTx1 or 3.0 μg/μL ASC06-IgG1; 24 h after injection
Description: The Middle Cerebral Artery Occlusion (MCAO) Model. Animal care and the experimental protocols were approved by the Animal Ethics Committee of Shanghai Jiao Tong University School of Medicine, Shanghai, China. A transient ischemic stroke in the left brain hemisphere was established in male mice (C57 BL/6, 20-25 g) using middle cerebral artery occlusion (MCAO) for 1 h before reperfusion. Three hours after ischemia, a total of 4 μL of vehicle solution (PBS) in the absence or presence of neuroprotective agents) 100 nM PcTx1 or 3.0 μg/μL endotoxin-free ASC06-IgG1 ([…])) was administered by an intracerebroventricular (i.c.v.) injection on the contralateral side of the brain hemisphere. An irrelevant endotoxin-free antibody (3.0 μg/μL, […]) was used as isotype control. […] Mice were sacrificed 24 h after the i.c.v. injection. […] The infarct area was calculated by subtracting the normal area stained with TTC in the ischemic hemisphere from that of the nonischemic hemisphere. The infarct volume was calculated by summing infarction areas of all sections and multiplying by slice thickness.
To determine if the protective effect of antibody ASC06-IgG1 in vitro could be extended to pathologies in vivo, the middle cerebral artery occlusion (MCAO) model was used to study the antibody's neuroprotective effect. […] The infarct volume of the cortex and striatum were calculated 24 hours after the injection. […]

hASIC1a-eYFP = biological target: T2, hASIC1a-eYFP (Homo sapiens, UniProt P78348); assay: Western blot and immunoprecipitation of 6H7 cell lysate; assay type: binding; parameters: expressed in transfected cells
T2 sequence (P78348 1-528): T1 sequence (P78348 1-528)
From the text: To characterize the interaction between ASC06-IgG1 and hASIC1a, the 6H7 stable line expressing the hASIC1a-eYFP fusion protein was used in a Western blot analysis. […] In contrast, both the commercial goat polyclonal anti-ASIC1 antibody and the anti-eYFP antibody were able to detect the hASIC1a-eYFP protein in the 6H7 lysate at molecular mass around 100 kDa (FIG. 13A and data not shown).
ASC06-IgG1 was used to pull down native hASIC1a-YFP in cell lysate followed by anti-eYFP Western blot for hASIC1a-YFP detection.

B1: ASC06-IgG1: ASC06 antibody converted into a full length IgG1 form (antibody, V domains shown)
VH: QVQLQQSGGGLVQPGGSLRLSCAASGFTFSSYAMSWVRQAPGKGLEWVSAISGSGGSTYYADSVKGRFTISRDNSKNTLYLQMNSLRAEDTAVYYCAKDSFYGYSKGDWGQGTLVTVSS
VL: QSALTQPASVSGSPGQSITISCTGTSSDVGAYNYVSWYQQQPGKAPKLMIYGVSNRPSGVSNRFSGSKSGNAASLTISGLQAEDEADYYCSSYTSSSTYVFGTGTKLTVLG
For B1, the “duration of sustained inhibition during washout” value (hASIC1a; after washing) was 30 min, the “maximal inhibition of the acid (pH 6.0)-induced currents” value (hASIC1a; dose-dependent) was “up to 80%” and the “infarct volume (compared with the contralateral brain region)” value [1] was “about 23%”. For the same molecule, the “recognition of hASIC1a in cell lysate in Western blot” value (hASIC1a-eYFP; denatured lysate of 6H7 cells) was “could not recognize” and the “pull down of native hASIC1a-YFP, anti-eYFP Western blot” value (hASIC1a-eYFP; immunoprecipitation) was “recognized hASIC1a in a conformation-dependent manner”.
